For assay [1], the target named is T1, human CXCR3 (human, UniProt P49682 1-368).
T1 construct: whole, on cells; R1610 cells
T1 sequence (looked up): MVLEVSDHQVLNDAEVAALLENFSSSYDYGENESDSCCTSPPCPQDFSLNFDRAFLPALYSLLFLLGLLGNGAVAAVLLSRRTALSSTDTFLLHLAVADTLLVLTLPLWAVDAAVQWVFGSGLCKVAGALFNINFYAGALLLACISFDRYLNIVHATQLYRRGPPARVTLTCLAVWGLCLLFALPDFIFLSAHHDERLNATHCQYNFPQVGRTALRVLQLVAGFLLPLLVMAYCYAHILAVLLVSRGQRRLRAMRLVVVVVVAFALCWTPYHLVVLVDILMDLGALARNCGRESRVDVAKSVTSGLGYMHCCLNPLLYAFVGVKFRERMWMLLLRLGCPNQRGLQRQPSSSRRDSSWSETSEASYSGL
As to the kind of experiment: FACS, R1610-human CXCR3 cells. Here is the method:
(§1) In more details, the cell staining procedure was: […] cell suspension in 10 μl FACS buffer (1×PBS, 2.0% FBS, 0.2% sodium azide) was mixed with 10 μl of 200 nM the corresponding anti-CCR7 MAB and incubated on ice for 30 min. Washing step—after the incubation 150 μl of FACS buffer was added to the cell sample, the samples were mixed gently by up-down pipetting the cell suspension. Then the samples were centrifuged at 1100 rpm for 5 minutes, and supernatants were removed. Washing step was repeated ones. Then 10 μl of anti-human PE-(Fab)2 form Jackson Immuno Research Lab. #709-116-098 diluted 40 times in FACS buffer were added to the cells and the cells were re-suspended by up-down pipetting. After 20 min. incubation on ice in dark the washing step was repeated twice. The washed cells were mixed with 100 μl of FIX buffer (0.5% Paraformaldehyde solution in PBS). Fixed samples were stored in dark on ice and analyzed by FACS on Guava PCA-96 flow cytometer. The fluorescent signals collected from individual cells were obtained using fluorescence Activated Cell Sorter (FACS).

Assay [2] concerns the target T2, human CXCR2 (human, UniProt P25025 1-360).
T2 construct: whole, on cells; Cf2th cells
T2 sequence (looked up): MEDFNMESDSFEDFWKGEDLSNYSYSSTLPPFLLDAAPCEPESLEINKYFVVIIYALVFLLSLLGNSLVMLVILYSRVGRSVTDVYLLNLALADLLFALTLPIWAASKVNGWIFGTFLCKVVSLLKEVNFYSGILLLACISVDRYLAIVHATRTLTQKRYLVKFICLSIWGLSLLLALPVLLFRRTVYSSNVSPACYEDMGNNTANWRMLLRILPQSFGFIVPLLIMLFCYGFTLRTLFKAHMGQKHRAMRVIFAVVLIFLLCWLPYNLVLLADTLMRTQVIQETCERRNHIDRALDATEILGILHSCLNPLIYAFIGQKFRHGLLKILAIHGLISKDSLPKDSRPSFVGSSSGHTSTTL
Put plainly: FACS, Cf2th-human CXCR2 cells. Here is the method:
as §1

Assay [3] addresses T3, human CXCR7 (human, UniProt P25106 1-362).
T3 construct: whole, on cells; CHO cells
As to the kind of experiment: FACS, CHO-human CXCR7 cells.

Assay [4] deals with T4, human CCR9 (human, UniProt P51686 1-369).
T4 construct: whole, on cells; R1610 cells
T4 sequence (looked up): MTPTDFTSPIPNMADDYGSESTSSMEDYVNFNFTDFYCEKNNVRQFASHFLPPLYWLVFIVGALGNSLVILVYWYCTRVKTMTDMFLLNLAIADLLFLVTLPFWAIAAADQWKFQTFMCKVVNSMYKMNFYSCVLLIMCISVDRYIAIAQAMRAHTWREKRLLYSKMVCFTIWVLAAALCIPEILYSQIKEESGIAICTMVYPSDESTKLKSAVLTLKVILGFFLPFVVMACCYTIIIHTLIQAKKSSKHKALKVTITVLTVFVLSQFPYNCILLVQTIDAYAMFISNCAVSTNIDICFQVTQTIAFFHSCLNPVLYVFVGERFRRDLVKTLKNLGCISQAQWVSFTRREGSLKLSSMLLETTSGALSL
Put plainly: FACS, R1610-human CCR9 cells. As for the experimental part:
as §1

Assay [5] addresses T5, human CCR10 (human, UniProt P46092 1-362).
T5 construct: whole, on cells; CHO cells
T5 sequence (looked up): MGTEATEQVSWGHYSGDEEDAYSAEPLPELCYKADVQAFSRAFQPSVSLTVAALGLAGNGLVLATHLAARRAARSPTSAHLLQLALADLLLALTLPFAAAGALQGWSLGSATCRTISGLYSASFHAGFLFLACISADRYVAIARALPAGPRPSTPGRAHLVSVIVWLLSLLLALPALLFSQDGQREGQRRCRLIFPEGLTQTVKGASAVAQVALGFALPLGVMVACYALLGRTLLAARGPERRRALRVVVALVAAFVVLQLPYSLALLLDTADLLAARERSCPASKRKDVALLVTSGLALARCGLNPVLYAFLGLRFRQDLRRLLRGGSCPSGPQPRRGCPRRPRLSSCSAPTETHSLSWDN
As to the kind of experiment: FACS, CHO-human CCR10 cells.

For assay [6], the target named is T6, human CXCR1 (human, UniProt P25024 1-350).
T6 construct: whole, on cells; R1610 cells
T6 sequence (looked up): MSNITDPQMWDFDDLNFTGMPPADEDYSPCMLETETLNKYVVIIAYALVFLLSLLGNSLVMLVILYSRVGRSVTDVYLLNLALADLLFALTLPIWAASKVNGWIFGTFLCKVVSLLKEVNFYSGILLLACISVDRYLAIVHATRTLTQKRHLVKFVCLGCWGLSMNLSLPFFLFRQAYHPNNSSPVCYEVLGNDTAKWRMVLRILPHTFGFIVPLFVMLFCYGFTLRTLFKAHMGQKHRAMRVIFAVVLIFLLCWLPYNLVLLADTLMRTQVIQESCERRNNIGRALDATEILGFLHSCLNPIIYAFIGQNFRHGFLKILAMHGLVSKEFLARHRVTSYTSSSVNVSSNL
As to the kind of experiment: FACS, R1610-human CXCR1 cells. As for the experimental part: as §1

Assay [7] addresses T7, human CXCR6 (human, UniProt O00574 1-342).
T7 construct: whole, on cells; CHO cells
Put plainly: FACS, CHO-human CXCR6 cells.

For assay [8], the target named is T8, human CXCR4 (human, UniProt P61073 1-352).
T8 construct: whole, on cells; Cf2th cells
Put plainly: FACS, Cf2th-human CXCR4 cells. As for the experimental part: as §1

T8 sequence (P61073 whole entry): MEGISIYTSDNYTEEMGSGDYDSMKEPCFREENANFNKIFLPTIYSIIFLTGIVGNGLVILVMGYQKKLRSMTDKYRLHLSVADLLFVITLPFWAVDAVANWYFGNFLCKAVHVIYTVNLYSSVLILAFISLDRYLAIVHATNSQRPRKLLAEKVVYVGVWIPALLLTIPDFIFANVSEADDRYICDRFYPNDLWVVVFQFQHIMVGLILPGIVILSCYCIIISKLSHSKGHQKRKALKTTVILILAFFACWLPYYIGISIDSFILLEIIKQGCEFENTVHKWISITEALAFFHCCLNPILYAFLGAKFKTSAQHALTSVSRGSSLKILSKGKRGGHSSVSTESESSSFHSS
T3 sequence (P25106 whole entry): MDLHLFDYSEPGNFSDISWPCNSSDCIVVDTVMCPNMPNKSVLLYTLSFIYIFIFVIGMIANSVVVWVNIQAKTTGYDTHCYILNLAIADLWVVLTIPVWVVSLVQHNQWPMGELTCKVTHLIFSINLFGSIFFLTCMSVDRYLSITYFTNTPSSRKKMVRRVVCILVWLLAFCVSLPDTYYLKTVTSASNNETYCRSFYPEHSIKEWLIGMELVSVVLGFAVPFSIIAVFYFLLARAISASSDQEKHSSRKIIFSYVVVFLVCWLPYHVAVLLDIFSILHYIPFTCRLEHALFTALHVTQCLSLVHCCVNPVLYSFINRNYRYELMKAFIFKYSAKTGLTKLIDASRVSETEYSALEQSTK
T7 sequence (O00574 whole entry): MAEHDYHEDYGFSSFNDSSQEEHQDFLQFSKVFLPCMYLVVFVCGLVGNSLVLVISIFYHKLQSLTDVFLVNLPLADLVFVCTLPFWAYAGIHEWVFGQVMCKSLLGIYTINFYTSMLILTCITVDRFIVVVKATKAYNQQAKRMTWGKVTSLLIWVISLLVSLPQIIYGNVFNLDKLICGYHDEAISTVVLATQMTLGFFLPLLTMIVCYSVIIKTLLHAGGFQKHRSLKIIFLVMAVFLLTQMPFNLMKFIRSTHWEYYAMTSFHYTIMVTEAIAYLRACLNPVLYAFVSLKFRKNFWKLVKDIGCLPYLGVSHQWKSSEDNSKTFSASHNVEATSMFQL

B1: MSM-R710 (fully human anti-human CCR7 antibody, IgG1) (antibody, V domains shown)
VH: EVQLLESGGGLVQPGGSLRLSCAASGFTFSNYTMHWVRQAPGKGLEWVSGIGPRSGRTYYADSVKGRFTISRDNSKNTLYLQMNSLRAEDTAVYYCARSYAYQYRGFDYWGQGTLVTVSS
VL: EIVLTQSPGTLSLSPGERATLSCRASQSVSSSYLAWYQQKPGQAPRLLIYGASSRATGIPDRFSGSGSGTDFTLTISRLEPEDFAVYYCQSSVTFGQGTKVEIKR
notes: IgG1 format
With B1, the binding result in assay [1], in assay [2], in assay [3], in assay [4], in assay [5] and in assay [6] was “no binding (tested: 200 nM MAB mixed 1:1 with cells)” throughout. Besides, the binding result in assay [7] and in assay [8] was “no binding (tested: 200 nM MAB mixed 1:1 with cells)” in each case.

B2: MSM-R735 (fully human anti-human CCR7 antibody, IgG1) (antibody)
heavy: not shown
light: EIVLTQSPGTLSLSPGERATLSCRASQSVSSSYLAWYQQKPGQAPRLLIYGASSRATGIPDRFSGSGSGTDFTLTISRLEPEDFAVYYCQQGSPVTFGQGTKVEIKRTVAAPSVFIFPPSDEQLKSGTASVVCLLNNFYPREAKVQWKVDNALQSGNSQESVTEQDSKDSTYSLSSTLTLSKADYEKHKVYACEVTHQGLSSPVTKSFNRGEC
notes: IgG1 format; also called R735 Human IgG1
As to B2, the binding result in assay [1], in assay [2], in assay [3], in assay [4], in assay [5] and in assay [6] was “no binding (tested: 200 nM MAB mixed 1:1 with cells)” throughout. The binding result in assay [7] and in assay [8] was “no binding (tested: 200 nM MAB mixed 1:1 with cells)” in each case.

These data come from patent publication US20150344580A1 (MSM PROTEIN TECHNOLOGIES, published 2015).
